Source: patent publication US9688764B2, “Methods of treating breast cancer by administering anti-human prolactin receptor (PRLR) antibodies” (REGENERON PHARMACEUTICALS, INC., priority 2013, dated 2017)

B1: H1H6803P-DM1 (conjugate)
VH: EVQLVESGGGVVRPGGSLRLSCAASGFKFDDYGMTWVRHVPGKGLEWVSGINWNGGRTGYTDSVKGRFTISRDNAKNSLYLQMNSLRAEDTALYHCAGARRDAFDIWGQGTMVTVSS
VL: DIQMTQSPSSLSASIGDRVTITCRASQNIIKYLNWYQQNAGKAPKLLIYTASSLQSGVPSRFSGSGSGTDFTLTISSLQPEDFATYYCQQSSSSPYTFGQGTKLEIK
B2: H1H6762P-DM1 (conjugate)
VH: QVQLVESGGGVVQPGRSLRLSCAASGFTFSHYGMVWVRQPPGKGLEWVALISFDGTTKYYADSVKGRFTISRDNSKNTLYLQMNSLRAEDTAVYFCVGAIAAAAFDLWGRGTLVTVSS
VL: EIVMTQSPATLSVSPGERATLSCRASQSVSSDLAWYQQKPGQAPRLLIYSASARATGIPARFTGSGSGTDFTLTISSLQSEDFAVYYCQQYNNWPMYTFGQGTKLEIK
B3: H1H6793P-DM1 (conjugate)
VH: EVQLVESGGGLVQPGGSLRLSCAASGFSFSIYAMSWFRQAPGKGLEWVSAINGRGDGTHYADSVKGRFTISRDNSKTTLYLQMSSLRAEDTAVYYCAKPVMSTNGFDIWGQGTMVTVSS
VL: DIQMTQSPSTLSASVGDRVTITCRASQSISSWLAWYQLKPGKAPKLLIYKASNLESGVPSRFSGSGSGTEFTLTISSLQPDDFATYYCQQYNIYWTFGQGTKVEIK
B4: H1H6975P-DM1 (conjugate)
VH: EVHLVESGGGLVQPGGSLRLSCAASGFTFSSYEMNWVRQTPGKGLEWISHISSRSVIIYYADSVKGRFTISRDNAKNSLFLQMNSLRAEDTAVYFCAGITIFGIPEYWGQGTLVTVSS
VL: EIVLTQSPATLSLSPGERATLSCRASQSVSSYFAWYQQKPGQAPRLLIYDASSRATGIPTRFSGSGSGTDFTLTISSLEPEDFAVYYCQQRSSWPITFGQGTRLEIK

Legend:
T47D cells = assay: Cell viability (cell kill) assay; assay type: cell-based; settings: T47D, Table 12, 3 days; for IC50: read-out: IC50
Description: (§1) Next, the ability of anti-PRLR-DM1 antibody-drug conjugates (i.e., anti-PRLR antibodies conjugated to DM1 via a non-cleavable linker [SMCC]) to reduce cell viability was determined using in vitro cell based assays. Cells were seeded in PDL-coated 96 well plates at 1500 to 10000 cells per well in complete growth media and allowed to grow overnight. For cell viability curves, ADCs or free DM1 (as the methyl disulfide derivative DM1-SMe) were added to the cells at final concentrations ranging from 500 nM to 5 pM and incubated for 3 days. The 293, PC3 and T47D cells were incubated with CCK8 (Dojindo, Rockville, Md.) for the final 1-3 hours and the absorbance at 450 nm (OD450) was determined on a Flexstation3 (Molecular Devices, Sunnyvale, Calif.). MCF7 cells were treated with Hoechst 33342 nuclear stain while being fixed with 4% formaldehyde. Images were acquired on the ImageXpress micro XL (Molecular Devices, Sunnyvale, Calif.) and nuclear counts were determined via Columbus image analysis software (Perkin Elmer, Shelton, Conn.). Background OD450 values (PC3, 293, and T47D) or nuclear counts (MCF7) from digitonin (40 nM) treated cells was subtracted from all wells and viability was expressed as a percentage of the untreated controls. IC50 values were determined from a four-parameter logistic equation over a 10-point response curve (GraphPad Prism).
Additionally, the impact of the PRLR ligand, PRL, on PRLR-SMCC-DM1 cell kill in T47D cells was assessed. T47D cells were incubated simultaneously with PRL (15 nM) and either a non-blocking anti PRLR antibody (H1H6782P) or a receptor blocking antibody (H1H6958N2).
(§2) Additional toxins (DM4, MeNHC3-May, and MMD) conjugated to anti-PRLR antibodies were also tested in T47D and MCF7/hPRLR cell lines, and results are summarized in Tables 19 (293 and T47D cell killing) and 20 (MCF7/ATCC and MCF7/PRLR cell killing). (ND=not detected).

PC3/hPRLR cells = assay: Cell viability (cell kill) assay; assay type: cell-based, human; settings: PC3/PRLR; Table 11; 3 days
From the text: (§3) PRLR-overexpressing cells, including HEK293, PC3, MCF7 and NCI-N87, were generated to assess the ability of anti-PRLR conjugated antibodies to reduce cell viability. For comparative purposes, PC3 and T47D cells with overexpressed ErbB2 were also generated, as well as an MCF7 cell line over-expressing both hPRLR and hErbB2. Briefly, Lipofectamine® 2000-mediated transfection methodology was utilized to generate HEK293 cells expressing human PRLR (HEK293/hPRLR) or human ErbB2 (HEK293/hErbB2). Lipofectamine LTX with Plus Reagent was used to generate PC3 cells expressing human PRLR (PC3/hPRLR) or human ErbB2 (PC3/hErbB2). Lentiviral-mediated transduction was utilized to generate MCF7 cells expressing human PRLR (MCF7/hPRLR), NCI-N87 cells expressing human PRLR (NCI-N87/hPRLR), T47D cells over-expressing human ErbB2 (T47D/hErbB2), and MCF7 cells expressing both human PRLR and human ErbB2 (MCF7/hPRLR/hErbB2). All lines were selected for at least two weeks in complete growth media plus appropriate selection reagents. Stably expressing populations were enriched for PRLR expression via FACS using the anti PRLR antibody Control I.
as §1
(§4) Finally, the potency of anti-PRLR antibodies conjugated to DM1 via the non-cleavable linker SMCC was compared to the cell killing potency of anti-PRLR antibodies conjugated to MMAE via the cleavable linker: mc-vc-PAB (available from Concortis, San Diego, Calif.). Cells used in this experiment were PC3, PC3/hPRLR, MCF7/ATCC and MCF7/PRLR.

PC3 cells = assay: Cell viability (cell kill) assay; assay type: cell-based; settings: Table 11, 3 days
From the text: as §3, §1, §4

[1] = system: MCF7/hPRLR (MCF7/PRLR) cells; assay: Cell viability (cell kill) assay, nuclear counts; assay type: cell-based, human; settings: Table 12, 3 days
From the text: as §3, §1, §4, §2

MCF7 (MCF7/ATCC) cells = assay: Cell viability (cell kill) assay, nuclear counts; assay type: cell-based; settings: MCF7; Table 12; 3 days
From the text: as §3, §1, §4, §2

[2] = Conjugate characterization: protein and linker/payload concentrations, payload loading (UV, MALDI-TOF, SEC-HPLC, RP-HPLC); assay type: physicochemical; settings: Anti-PRLR-SMCC-DM1 conjugates; Table 9
From the text: Selected anti-PRLR antibodies were conjugated to the maytansinoid DM1 through an SMCC linker using methods similar to those set forth in U.S. Pat. No. 5,208,020 and US Patent Application Publication No. 2010/0129314, the disclosures of which are incorporated by reference herein in their entireties. The conjugates were purified by size exclusion chromatography and sterile filtered. All starting materials and solvents were purchased commercially and used without purification, unless otherwise noted.
Protein and linker/payload concentrations were determined by UV spectral analysis and MALDI-TOF mass spectrometry. Size-exclusion HPLC established that all conjugates used were >95% monomeric, and RP-HPLC established that there was <0.5% unconjugated linker payload. Yields are reported in Table 8 and 9 based on protein. All conjugated antibodies were analyzed by UV for linker payload loading values according to Hamblett et al, 2004, Clinical Cancer Research 10(20):7063-7070, and by mass difference, native versus conjugated.

HEK293 (293) cells = assay: Cell viability (cell kill) assay; assay type: cell-based; settings: 293; Table 11; 3 days
From the text: as §3, §1

Row | Molecule | % Kill (T47D cells) [%] | IC50 (T47D cells) [nM] | % Kill (PC3/hPRLR cells) [%] | IC50 (PC3/hPRLR cells) [nM] | IC50 (PC3 cells) [nM] | % Kill [1] [%] | IC50 [1] [nM] | % Kill (MCF7 (MCF7/ATCC) cells) [%] | IC50 (MCF7 (MCF7/ATCC) cells) [nM] | Payload:Antibody Molar Ratio (MS) [2] | IC50 (HEK293 (293) cells) [nM] | Payload:Antibody Molar Ratio (UV) [2]
1 | B1 | 77 | 8.61 | 70 | 2.32 | 150 | 84 | 0.44 | 60 | 150 | 3.1 | – | –
2 | B2 | 80 | 12.6 | 66 | 0.98 | – | 83 | 0.46 | 64 | 110 | 2.9 | 100 | –
3 | B3 | 53 | 11.1 | 65 | 3.65 | – | 87 | 0.54 | 67 | 125 | 3.8 | – | –
4 | B4 | – | – | – | – | – | – | – | – | – | 3.4 | – | 3.0
